Columns and labels:
[1] = biological target: Cynomolgus monkey NOGO (A56) plus GST tag (cynomolgus monkey); test: direct ELISA on GST-NOGO-A56 from cynomolgus, Abs490
[2] = biological target: GST-human NOGO-A56 (human); test: SPR (Biacore T100), human Nogo-A amine-coupled to CM5, antibody 0.125-8 nM flowed over; mean
[3] = biological target: Marmoset NOGO (A56) plus GST tag (marmoset); test: SPR (Biacore T100), reverse format: antibody captured by Protein A, GST-NOGO-A56 flowed over; mean
[4] = biological target: GST-human NOGO-A56 (human); test: as above
[5] = biological target: Squirrel monkey NOGO (A56) plus GST tag (squirrel monkey); test: as above
[6] = biological target: Rat NOGO (A56) plus GST tag (rat); test: as above
[7] = biological target: Cynomolgus monkey NOGO (A56) plus GST tag (cynomolgus monkey); test: as above
[8] = biological target: Squirrel monkey NOGO (A56) plus GST tag (squirrel monkey); test: direct ELISA on GST-NOGO-A56 from squirrel monkey, Abs490
[9] = biological target: Marmoset NOGO (A56) plus GST tag (marmoset); test: SPR (Biacore T100), Nogo-A orthologue amine-coupled to CM5, antibody 0.125-8 nM flowed over; mean
[10] = biological target: Squirrel monkey NOGO (A56) plus GST tag (squirrel monkey); test: as above
[11] = biological target: Rat NOGO (A56) plus GST tag (rat); test: as above
[12] = biological target: Cynomolgus monkey NOGO (A56) plus GST tag (cynomolgus monkey); test: as above
[13] = biological target: Marmoset NOGO (A56) plus GST tag (marmoset); test: direct ELISA on GST-NOGO-A56 from marmoset, Abs490
[14] = biological target: Rat NOGO (A56) plus GST tag (rat); test: direct ELISA on GST-NOGO-A56 from rat, Abs490

Chain of Squirrel monkey NOGO (A56) plus GST tag (squirrel monkey) (chain, as listed by the source limits assumed): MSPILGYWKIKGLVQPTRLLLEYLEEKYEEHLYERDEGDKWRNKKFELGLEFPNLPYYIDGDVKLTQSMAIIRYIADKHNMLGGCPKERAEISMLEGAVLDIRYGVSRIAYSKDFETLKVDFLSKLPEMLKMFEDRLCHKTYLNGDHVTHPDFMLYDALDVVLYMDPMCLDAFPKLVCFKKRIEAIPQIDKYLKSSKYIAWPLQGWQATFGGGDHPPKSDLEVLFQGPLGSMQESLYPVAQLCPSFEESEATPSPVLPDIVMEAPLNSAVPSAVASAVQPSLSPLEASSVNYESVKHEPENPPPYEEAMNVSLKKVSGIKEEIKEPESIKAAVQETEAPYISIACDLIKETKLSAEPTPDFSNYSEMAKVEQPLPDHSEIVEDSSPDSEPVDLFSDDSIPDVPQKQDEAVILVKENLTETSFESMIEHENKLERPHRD
Chain of Rat NOGO (A56) plus GST tag (rat) (chain, as listed by the source limits assumed): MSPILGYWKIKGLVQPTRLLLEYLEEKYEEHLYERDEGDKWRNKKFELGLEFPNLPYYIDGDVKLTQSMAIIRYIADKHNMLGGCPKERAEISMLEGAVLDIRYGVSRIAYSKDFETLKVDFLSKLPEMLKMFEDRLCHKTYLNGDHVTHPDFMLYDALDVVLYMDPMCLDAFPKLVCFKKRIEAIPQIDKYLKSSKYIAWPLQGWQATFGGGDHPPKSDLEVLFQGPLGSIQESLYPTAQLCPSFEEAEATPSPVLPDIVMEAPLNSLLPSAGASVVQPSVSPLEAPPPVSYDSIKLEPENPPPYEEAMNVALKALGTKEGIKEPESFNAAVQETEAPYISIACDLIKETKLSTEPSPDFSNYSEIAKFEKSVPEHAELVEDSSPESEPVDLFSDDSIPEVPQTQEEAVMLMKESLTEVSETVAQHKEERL
Chain of Cynomolgus monkey NOGO (A56) plus GST tag (cynomolgus monkey) (chain, as listed by the source limits assumed): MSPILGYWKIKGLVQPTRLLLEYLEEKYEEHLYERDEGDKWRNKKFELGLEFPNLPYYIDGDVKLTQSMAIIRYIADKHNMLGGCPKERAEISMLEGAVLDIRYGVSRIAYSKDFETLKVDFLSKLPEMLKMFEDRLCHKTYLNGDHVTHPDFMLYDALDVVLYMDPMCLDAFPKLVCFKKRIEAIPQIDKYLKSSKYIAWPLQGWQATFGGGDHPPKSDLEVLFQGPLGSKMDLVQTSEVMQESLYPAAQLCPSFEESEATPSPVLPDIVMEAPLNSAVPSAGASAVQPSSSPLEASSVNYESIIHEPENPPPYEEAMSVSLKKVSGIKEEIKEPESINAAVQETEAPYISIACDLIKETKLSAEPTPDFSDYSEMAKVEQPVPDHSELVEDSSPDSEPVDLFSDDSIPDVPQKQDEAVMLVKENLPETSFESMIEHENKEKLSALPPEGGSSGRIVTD
Chain of Marmoset NOGO (A56) plus GST tag (marmoset) (chain, as listed by the source limits assumed): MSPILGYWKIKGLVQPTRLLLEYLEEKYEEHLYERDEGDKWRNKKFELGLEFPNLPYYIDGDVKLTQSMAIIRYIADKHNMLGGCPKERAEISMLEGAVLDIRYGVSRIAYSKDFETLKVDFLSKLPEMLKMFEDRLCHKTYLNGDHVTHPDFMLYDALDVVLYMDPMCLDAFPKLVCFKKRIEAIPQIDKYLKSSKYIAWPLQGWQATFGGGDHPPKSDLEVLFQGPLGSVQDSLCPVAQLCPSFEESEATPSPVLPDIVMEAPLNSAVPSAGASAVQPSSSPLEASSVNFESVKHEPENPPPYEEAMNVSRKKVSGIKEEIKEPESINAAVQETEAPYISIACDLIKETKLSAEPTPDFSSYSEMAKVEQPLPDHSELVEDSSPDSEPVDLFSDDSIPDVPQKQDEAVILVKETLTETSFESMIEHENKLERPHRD
Chain of GST-human NOGO-A56 (human) (chain, as listed by the source limits assumed): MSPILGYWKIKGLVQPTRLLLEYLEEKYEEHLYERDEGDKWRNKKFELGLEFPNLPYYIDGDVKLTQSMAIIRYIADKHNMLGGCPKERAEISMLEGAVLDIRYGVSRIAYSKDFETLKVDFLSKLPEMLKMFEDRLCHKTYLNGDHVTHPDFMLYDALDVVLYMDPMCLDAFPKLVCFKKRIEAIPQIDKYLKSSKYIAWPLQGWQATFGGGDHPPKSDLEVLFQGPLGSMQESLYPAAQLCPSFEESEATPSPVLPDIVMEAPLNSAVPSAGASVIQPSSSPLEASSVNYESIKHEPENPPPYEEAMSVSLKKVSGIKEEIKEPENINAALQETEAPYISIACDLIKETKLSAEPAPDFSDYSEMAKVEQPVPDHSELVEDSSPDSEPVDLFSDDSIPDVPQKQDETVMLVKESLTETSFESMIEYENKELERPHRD

EC50 (read off the curve) [1]: 0.06 µg/mL | Kd [2]: 0.19 nM | Kd [3]: 1.33 nM | Kd [4]: 0.57 nM | Kd [5]: 2.69 nM | Kd [6]: 0.64 nM | Kd [7]: 0.76 nM | EC50 (read off the curve) [8]: 0.04 µg/mL | Kd [9]: 0.24 nM | Kd [10]: 0.26 nM | Kd [11]: 0.11 nM | Kd [12]: 0.23 nM | EC50 (read off the curve) [13]: 0.04 µg/mL | EC50 (read off the curve) [14]: 0.06 µg/mL
Substance: chimeric 11C7 (antibody)

Source: US20130287781A1
